These results are taken from US20150037328A1 (Pfizer, published 2015).

Test [1] has as its target T1, human CXCR4 (chemokine (C-X-C motif) receptor 4) (human, UniProt P61073 1-352).
T1 construct: Endogenous on human tumour cell lines (Ramos, HPB-ALL, Raji, Jurkat, MM1.S, RPMI-8226, MOLP-8, MOLT-4) or transfected into CHO-K1 cells (DiscoveRx); also called CXCR4 receptor
The test is described as follows: flow cytometry on HPB-ALL cells, Fab at 2.5 µg/ml. A general note: A flow cytometer gives signals particle by particle.

The target in test [2] is T1, human CXCR4 (chemokine (C-X-C motif) …). The test is described as follows: flow cytometry on HPB-ALL cells, Fab at 0.25 µg/ml.
For test [3] the target is unchanged. The test is described as follows: flow cytometry on HPB-ALL cells, Fab at 0.25 µg/mL. How it is done:
Binding of CXCR4 Fabs to CXCR4-expressing cells were measured by flow cytometry on HPB-ALL (Human T cell leukemia) cells. 150,000 HPB-ALL cells were resuspended in 100 uL FACS buffer (1×PBS+0.5% BSA) on 96 well plates. […] After removing the primary antibodies the cells were washed twice with FACS buffer and then resuspended in FACS buffer and 2 uL (3 ug) of 2nd Ab (Alexa Fluor 647-conjugated goat anti-human IgG, F(ab′)2 specific, Jackson ImmunoResearch Laboratories, West Grove Pa.) was then added to each well. The plates were incubated at 4 degree for another 30 min. Fluorescence signals were acquired by cell analyzer LSRII (BD Biosciences, San Jose Calif.).

Test [4] deals with T2, human CXCR4-enriched lipoparticles (LEV101, Integral Molecular) (human, UniProt P61073 1-352).
T2 construct: Bought reagent; CXCR4 held in lipoparticles captured by biotinylated WGA on an SA chip; also called Lipoparticles containing CXCR4 proteins
The test is described as follows: biosensor kinetic titration, Fab over captured human CXCR4 lipoparticles. How it is done:
The binding affinity of each Fab was determined using human CXCR4-enriched lipoparticles (LEV101, Integral Molecular, Philadelphia Pa.). Biotinylated WGA (Sigma Aldrich, St. Louis Mo.)) can be coated on the SA chip to facilitate capturing lipoparticles containing CXCR4 proteins. […] J. Mol. Recognit.

T1 sequence (P61073 whole entry): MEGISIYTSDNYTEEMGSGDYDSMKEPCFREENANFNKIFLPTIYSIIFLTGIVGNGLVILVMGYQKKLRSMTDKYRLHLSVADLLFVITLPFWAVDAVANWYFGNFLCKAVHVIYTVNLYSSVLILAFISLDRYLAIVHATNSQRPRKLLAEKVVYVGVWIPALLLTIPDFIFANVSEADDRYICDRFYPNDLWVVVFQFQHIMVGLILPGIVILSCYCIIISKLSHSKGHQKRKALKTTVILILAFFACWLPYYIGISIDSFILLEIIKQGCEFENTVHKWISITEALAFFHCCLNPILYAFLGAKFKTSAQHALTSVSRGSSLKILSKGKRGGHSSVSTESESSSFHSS
T2 sequence (P61073 whole entry): as above

B1: h3G10.1.7 VH / h3G10.2.72 VL Fab (Fab, V domains shown)
VH: EVQLVESGGGLVQPGGSLRLSCAASGFTFSDYYMSWVRQAPGKGLEWVGFIRHKANKYTTEYSTSVKGRFTISRDDSKNSLYLQMNSLKTEDTAVYYCARDLPGFAYWGQGTLVTVSS
VL: DIVMTQSPDSLAVSLGERATINCKSSQSLFNSRTRKNYLAWYQQKPGQPPKLLIYWASARESGVPDRFSGSGSGTDFTLTISSLQAEDVAVYYCKQSFRLRTFGGGTKVEIK
notes: Tested as Fab
Turning to B1, the results for the MFI in test [1] and in test [2] were 4120 and 768, respectively.

B2: h3G10.2.54 VH / h3G10.2.72 VL Fab (Fab, V domains shown)
VH: EVQLVESGGGLVQPGGSLRLSCAASGFTFSDYYMSWVRQAPGKGLEWVGFIRHKANFYTTEYSTSVRGRFTISRDDSKNSLYLQMNSLKTEDTAVYYCARDLPGFAYWGQGTLVTVSS
VL: DIVMTQSPDSLAVSLGERATINCKSSQSLFNSRTRKNYLAWYQQKPGQPPKLLIYWASARESGVPDRFSGSGSGTDFTLTISSLQAEDVAVYYCKQSFRLRTFGGGTKVEIK
notes: Tested as Fab
On to B2, for which the figures for the MFI in test [1] and in test [2] were 4610 and 1740, respectively.

B3: h3G10.B44 VH / h3G10.A58A VL Fab (Fab, V domains shown)
VH: EVQLVESGGGLVQPGGSLRLSCAASGFTFSDYYMSWVRQAPGKGLEWVSFIRHKANFYTTEYSTSVKGRFTISRDNSKNTLYLQMNSLRAEDTAVYYCAKDLPGFAYWGQGTLVTVSS
VL: DIVMTQSPDSLAVSLGERATINCKSSQSLFNSHTRKNYLAWYQQKPGQPPKLLIYWASARGSGVPDRFSGSGSGTDFTLTISSLQAEDVAVYYCKQSFRLRTFGGGTKVEIK
notes: Tested as Fab
Consider B3, for which the figures for the MFI in test [1] and in test [2] were 9410 and 5120, respectively.

B4: h3G10.1.91 VH / h3G10.A58B VL Fab (Fab, V domains shown)
VH: EVQLVESGGGLVQPGGSLRLSCAASGFTFSDYYMSWVRQAPGKGLEWVGFIRHKANFETTEYSTSVKGRFTISRDDSKNSLYLQMNSLKTEDTAVYYCARDLPGFAYWGQGTLVTVSS
VL: DIVMTQSPDSLAVSLGERATINCKSSQSLFNSHTRKNYLAWYQQKPGQPPKLLIYWASARGSGVPDRFSGSGSGTDFTLTISSLQAEDVAVYYCKQSFNLRTFGGGTKVEIK
notes: Tested as Fab
In test [3], B4 yielded an MFI of 4630. Also, in test [4], the affinity, expressed as Kd, was 0.36 nM; the koff (as a rule, the rate constant with which the complex falls apart) was 0.000286 s⁻¹; the kon (in general, the rate constant with which the complex forms) was 803000 M⁻¹ s⁻¹; the t½ (as a rule, the time needed for the level to fall by half in the phase considered) turned out to be 40.4 min.

B5: h3G10.2.37 VH / h3G10.A58A VL Fab (Fab, V domains shown)
VH: EVQLVESGGGLVQPGGSLRLSCAASGFTFSDYYMSWVRQAPGKGLEWVGFIRHKANFYTREYSTSVKGRFTISRDDSKNSLYLQMNSLKTEDTAVYYCARDLPGFAYWGQGTLVTVSS
VL: DIVMTQSPDSLAVSLGERATINCKSSQSLFNSHTRKNYLAWYQQKPGQPPKLLIYWASARGSGVPDRFSGSGSGTDFTLTISSLQAEDVAVYYCKQSFRLRTFGGGTKVEIK
notes: Tested as Fab
As to B5, the MFI in test [3] was determined as 4070. Also, in test [4], binding was characterised by a dissociation constant (Kd) of 0.32 nM, the dissociation rate constant (koff) turned out to be 0.000418 s⁻¹, the kon was determined as 1.29e+06 M⁻¹ s⁻¹ and the “t½” value amounted to 27.6 min.

B6: h3G10.1.60 VH / h3G10.2.72 VL Fab (Fab, V domains shown)
VH: EVQLVESGGGLVQPGGSLRLSCAASGFTFSDYYMSWVRQAPGKGLEWVGFIRHKANVYTTEYSTSVKGRFTISRDDSKNSLYLQMNSLKTEDTAVYYCARDLPGFAYWGQGTLVTVSS
VL: DIVMTQSPDSLAVSLGERATINCKSSQSLFNSRTRKNYLAWYQQKPGQPPKLLIYWASARESGVPDRFSGSGSGTDFTLTISSLQAEDVAVYYCKQSFRLRTFGGGTKVEIK
notes: Tested as Fab
On to B6, for which the MFI is 2810 in test [1] and 396 in test [2].

B7: h3G10.2.42 VH / h3G10.2.72 VL Fab (Fab, V domains shown)
VH: EVQLVESGGGLVQPGGSLRLSCAASGFTFSDYYMSWVRQAPGKGLEWVGFIRHKVNFYTTEYSTSVKGRFTISRDDSKNSLYLQMNSLKTEDTAVYYCARDLPGFAYWGQGTLVTVSS
VL: DIVMTQSPDSLAVSLGERATINCKSSQSLFNSRTRKNYLAWYQQKPGQPPKLLIYWASARESGVPDRFSGSGSGTDFTLTISSLQAEDVAVYYCKQSFRLRTFGGGTKVEIK
notes: Tested as Fab
With B7, the MFI in test [1] was found to be 4720; in test [2], 1760.

B8: h3G10.2.37 VH / h3G10.A58B VL Fab (Fab, V domains shown)
VH: EVQLVESGGGLVQPGGSLRLSCAASGFTFSDYYMSWVRQAPGKGLEWVGFIRHKANFYTREYSTSVKGRFTISRDDSKNSLYLQMNSLKTEDTAVYYCARDLPGFAYWGQGTLVTVSS
VL: DIVMTQSPDSLAVSLGERATINCKSSQSLFNSHTRKNYLAWYQQKPGQPPKLLIYWASARGSGVPDRFSGSGSGTDFTLTISSLQAEDVAVYYCKQSFNLRTFGGGTKVEIK
notes: Tested as Fab
In test [3], B8 displayed an MFI of 4550. Moreover, in test [4], binding was put at a Kd of 0.56 nM, the koff was determined as 0.000449 s⁻¹, the kon was 797000 M⁻¹ s⁻¹ and the “t½” value was 25.7 min.

B9: h3G10.1.33 VH / h3G10.2.72 VL Fab (Fab, V domains shown)
VH: EVQLVESGGGLVQPGGSLRLSCAASGFTFSDYYMSWVRQAPGKGLEWVGFIRHKANFYTTEYSTSVTGRFTISRDDSKNSLYLQMNSLKTEDTAVYYCARDLPGFAYWGQGTLVTVSS
VL: DIVMTQSPDSLAVSLGERATINCKSSQSLFNSRTRKNYLAWYQQKPGQPPKLLIYWASARESGVPDRFSGSGSGTDFTLTISSLQAEDVAVYYCKQSFRLRTFGGGTKVEIK
notes: Tested as Fab
In the case of B9, the MFI in test [1] was found to be 4140; in test [2] it was 848.

B10: h3G10.A57 VH / h3G10.A58B VL Fab (Fab, V domains shown)
VH: EVQLVESGGGLVQPGGSLRLSCAASGFTFSDYYMSWVRQAPGKGLEWVGFIRHKANFYTTEYSTSVKGRFTISRDDSKNSLYLQMNSLKTEDTAVYYCARDLPGFAYWGQGTLVTVSS
VL: DIVMTQSPDSLAVSLGERATINCKSSQSLFNSHTRKNYLAWYQQKPGQPPKLLIYWASARGSGVPDRFSGSGSGTDFTLTISSLQAEDVAVYYCKQSFNLRTFGGGTKVEIK
notes: Tested as Fab
In the case of B10, the MFI in test [3] came to 3090. In addition, in test [4], binding was characterised by a dissociation constant (Kd) of 0.75 nM, the koff was 0.000515 s⁻¹, the on-rate (kon) is 688000 M⁻¹ s⁻¹ and the “t½” value came out at 22.4 min.

B11: h3G10.2.5 VH / h3G10.2.72 VL Fab (Fab, V domains shown)
VH: EVQLVESGGGLVQPGGSLRLSCAASGFTFSDYYMSWVRQAPGKGLEWVGFIRHKANIYTTEYSTSVKGRFTISRDDSKNSLYLQMNSLKTEDTAVYYCARDLPGFAYWGQGTLVTVSS
VL: DIVMTQSPDSLAVSLGERATINCKSSQSLFNSRTRKNYLAWYQQKPGQPPKLLIYWASARESGVPDRFSGSGSGTDFTLTISSLQAEDVAVYYCKQSFRLRTFGGGTKVEIK
notes: Tested as Fab
For the molecule B11, the figures for the MFI in test [1] and in test [2] were 2790 and 390, respectively.

B12: h3G10.A57 VH / h3G10.2.25 VL Fab (Fab, V domains shown)
VH: EVQLVESGGGLVQPGGSLRLSCAASGFTFSDYYMSWVRQAPGKGLEWVGFIRHKANFYTTEYSTSVKGRFTISRDDSKNSLYLQMNSLKTEDTAVYYCARDLPGFAYWGQGTLVTVSS
VL: DIVMTQSPDSLAVSLGERATINCRSSQSLFNSRTRKNYLAWYQQKPGQPPKLLIYWASARESGVPDRFSGSGSGTDFTLTISSLQAEDVAVYYCKQSFRLRTFGGGTKVEIK
notes: Tested as Fab
As to B12, the figures for the MFI in test [1] and in test [2] were 5000 and 1380, respectively.

B13: h3G10.2.45 VH / h3G10.2.72 VL Fab (Fab, V domains shown)
VH: EVQLVESGGGLVQPGGSLRLSCAASGFTFSDYYMSWVRQAPGKGLEWVGFIRHKANFYTTEYSTWVKGRFTISRDDSKNSLYLQMNSLKTEDTAVYYCARDLPGFAYWGQGTLVTVSS
VL: DIVMTQSPDSLAVSLGERATINCKSSQSLFNSRTRKNYLAWYQQKPGQPPKLLIYWASARESGVPDRFSGSGSGTDFTLTISSLQAEDVAVYYCKQSFRLRTFGGGTKVEIK
notes: Tested as Fab
As to B13, the MFI in test [1] came to 2780; in test [2] it was 929.

B14: h3G10.3.25 VH / h3G10.2.72 VL Fab (Fab, V domains shown)
VH: EVQLVESGGGLVQPGGSLRLSCAASGFTFSDYYMSWVRQAPGKGLEWVGFIRHKANFYTTEYSTSDKGRFTISRDDSKNSLYLQMNSLKTEDTAVYYCARDLPGFAYWGQGTLVTVSS
VL: DIVMTQSPDSLAVSLGERATINCKSSQSLFNSRTRKNYLAWYQQKPGQPPKLLIYWASARESGVPDRFSGSGSGTDFTLTISSLQAEDVAVYYCKQSFRLRTFGGGTKVEIK
notes: Tested as Fab
As for B14, the values for the MFI in test [1] and in test [2] were 2680 and 454, respectively.

B15: h3G10.1.91 VH / h3G10.A58A VL Fab (Fab, V domains shown)
VH: EVQLVESGGGLVQPGGSLRLSCAASGFTFSDYYMSWVRQAPGKGLEWVGFIRHKANFETTEYSTSVKGRFTISRDDSKNSLYLQMNSLKTEDTAVYYCARDLPGFAYWGQGTLVTVSS
VL: DIVMTQSPDSLAVSLGERATINCKSSQSLFNSHTRKNYLAWYQQKPGQPPKLLIYWASARGSGVPDRFSGSGSGTDFTLTISSLQAEDVAVYYCKQSFRLRTFGGGTKVEIK
notes: Tested as Fab
For the molecule B15, the MFI in test [3] amounted to 5050. In test [4], binding was put at a Kd of 0.38 nM, the koff was 0.000341 s⁻¹, the kon came out at 908000 M⁻¹ s⁻¹ and the “t½” value was determined as 33.9 min.
